Results published in the supplement of paper PMC10567573.

B1: TRIM63 (parent)
chain: FRCPTCRHEVIMDRHGVYGLQRNL
B2: HESX1 (parent)
chain: SKYENYFSASERLSLKRELSWYRG

Variants of: B1
Experiment: protein stability index of a GFP-peptide fusion (GPS, HEK-293T) (PSI 1-6); higher = more stable
Conditions: c terminus: a fixed tail appended
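Also: lentivirally expressed fusions sorted by FACS into six bins by GFP to DsRed ratio, PSI derived from sequencing read proportions per bin multiplied by bin number.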

Protein stability index, by site and new letter:
L24: W 2.4 | A 2.34 | D 2.6 | H 2.88 | N 1.85 | E 2.46 | R 1.7 | T 2.98 | P 2.98 | G 2.99 | F 1.61 | M 2.03 | Y 2.7 | I 1.69 | S 2.47 | V 2.12 | K 1.89 | Q 2.26 | C 2.75
Q21: V 1.59 | W 2.31 | F 1.27 | I 1.74 | N 2.87 | D 2.1 | S 1.55 | C 2.63 | R 1.98 | M 1.63 | P 1.96 | A 1.66 | E 2.73 | H 1.86 | L 3.19 | K 2.02 | G 2.42 | Y 2.17
N23: D 2.55 | G 2.82 | M 1.47 | V 2.96 | W 2.79 | K 2.04 | T 1.67 | I 1.89 | C 2.2 | R 2.54 | Q 2.67 | E 2.05 | Y 1.25 | H 2.5 | P 1.56 | A 1.79 | F 2.02 | S 2.14 | L 1.7
L20: K 1.51 | P 1.77 | T 2.81 | N 2.05 | V 2.71 | E 2.27 | R 1.08 | S 2.11 | M 1.81 | F 2.02 | I 1.6 | G 1.66 | W 2.25 | Q 2.07 | H 2.75 | Y 1.99
R22: D 3.21 | V 2.43 | T 2.08 | S 2.35 | K 2.02 | L 1.34 | F 1.84 | G 1.98 | Q 2.24 | M 1.45 | I 3.38 | E 3.83 | N 2.95 | P 2.49 | Y 1.75 | W 2.43 | H 2.17 | A 2.29 | C 2.29

Variants of: B2
Experiment: as above
Conditions: c terminus: a fixed tail appended

Protein stability index, by site and new letter:
N5: C 1.51 | F 1.03 | K 1.42 | Q 2.12 | P 1.63 | D 1.71 | I 2.23 | A 2.03 | Y 2.24 | T 2.24 | H 1.9
K2: T 2.34 | A 2.09 | H 1.8 | I 1.45 | Y 1.81 | S 1.82 | Q 2.65 | C 2.23 | M 1.7 | D 2.19 | L 1.25 | R 1.64 | E 2.05 | F 1.57 | G 2.31 | P 1.96 | V 1.77
Y3: R 2.13 | C 1.79 | K 3.46 | Q 1.61 | D 2.29 | P 1.66 | G 2.75 | V 3.67 | N 1.72 | L 1.97 | F 1.48 | M 1.59 | I 2.26 | S 2.97
E4: C 2.24 | R 2.54 | D 2.45 | Q 1.56 | M 2.02 | L 2.23 | P 2.06 | N 1.71 | Y 2.33 | T 2.98 | G 2.13 | V 2.1 | H 1.17 | A 1.61 | I 1.26 | S 1.27
Y6: H 2.25 | D 2.91 | G 2.56 | A 2.85 | C 1.84 | E 2.3 | F 2.88
S1: C 2.04 | G 1.9 | H 2.34 | I 1.61 | M 1.36 | K 1.4 | E 1.76 | A 1.71 | Y 2.77 | N 1.74 | L 2.06
